B1: HB1: murine anti-EBV gp350 mAb, IgG1 κ; heavy chain SEQ ID NO: 102, light chain SEQ ID NO: 103; neutralizing (antibody, V domains shown)
VH: PGLVAPSQSLSITCTVSGFLLTTYGVHWVRQPPGKGLEWLGVIWAGGSTNYNSALMSRLSINKDISKSQVFLKMNSLQTDDTAMYYCTRDRGYGYLYAMDYWGQGTSVTVSSAKTTPPSVYPLAPGSAAQTNSMVTLG
VL: KFMSTSVGDRVSVTCKASQNVGTNVAWYQQKPGQSPKALIYSTSSRYTGVPDRFAGSGSGTDYTLTISNVQSEDLAEYFCQQYNTYPYTFGGGTRLDIKRADAAPTV
modifications: heavy chain mAb HB1; light chain mAb HB1
notes: murine anti-EBV gp350 mAb, IgG1 κ; neutralizing
B2: HB8: murine anti-EBV gp350 mAb, IgG1 κ; SEQ ID NO: 114 / 115; HB18 has identical VH and VL (antibody, V domains shown)
VH: PELKKPGETVKISCKASGYSFTNYGMNWVKQAPGKGLKWMGWINTYTGEPTYADDFKGRFAFSLETSASTAFLQINNLKNEDTATYLCARYYYGSVYSAWFAYWGQGTLVTVSAAKTTPPSVYPLAPGSAAQTNSMVTLG
VL: LSLPVSLGDQASISCRSSQSIVHSNGNTYLEWYLQKAGQSPKLLIYKVSNRFSGVPDRFGGSGSGTDFTLKISRVEAEDLGVYYCFQGSHVPYTFGGGTKLEIKRADAAPTV
modifications: heavy chain mAb HB8; light chain mAb HB8
notes: murine anti-EBV gp350 mAb, IgG1 κ; HB18 has identical VH and VL
B3: HB10: murine anti-EBV gp350 mAb, IgG1 κ; SEQ ID NO: 118 / 119; non-nAb (protein)
chain 1: B2 VL
chain 2: SSLSASLGDRVTISCRASQDIGNYLNWYQQKPDGTVKLLIYYTSRLHSGVPSRFSGSGSGTDYSLTISNLEEEDIATYFCQQGNTLPPTFGGGTKLEIKRADAAPTV
modifications: heavy chain mAb HB10; light chain mAb HB10
notes: murine anti-EBV gp350 mAb, IgG1 κ; non-nAb
B4: HB7: murine anti-EBV gp350 mAb, IgG1 κ; SEQ ID NO: 112 / 113 (antibody, V domains shown)
VH: AELVRPGASVKLSCKALGYTFTDYEMHWVKQTPVHGLEWIGTISPGRSGTAYNQKFKGKATLTADKSSRTAYMELNSLTSEDSAVYYCSRYGHPSYLDVWGAGTTVTVSSAKTTPPSVYPLAPGSAAQTNSMVTLG
VL: KFMSTSVGDRVNITCKASQSVGNAVAWFQQKPGQSPKLLIYSASNRYTGIPDRFTGSGSGTDFTLTCNNMQSEDLADYFCQQYSSYPLTFGAGTKLELKRADAAPTV
modifications: heavy chain mAb HB7; light chain mAb HB7
B5: HB6: murine anti-EBV gp350 mAb, IgG1 κ; SEQ ID NO: 110 / 111 (antibody, V domains shown)
VH: PELRKPGETVKISCKASGYTFTDYSMHWVKQTPGKGLKWMGWINTRTGEPRYADDFKGRFAFSLETSASTAYLQINNLKNEDTATYFCAPYGYALDYWGQGTSVTVSSAKTTPPSVYPLAPGSAAQTNSMVTLG
VL: AILSASPGEKVTMTCRATSSVNYMHWYQQKPGSSPKPWIYATSNLASGVPARFSGSGSGTSYSLTISRVEAEDAATYYCQQWSSNPPTFGAGTKLELKRADAAPTV
modifications: heavy chain mAb HB6; light chain mAb HB6
B6: HB14: murine anti-EBV gp350 mAb, IgG1 κ; SEQ ID NO: 124 / 125 (antibody, V domains shown)
VH: SGAELVRPGASVNLSCKALGYTFTDYEMHWVKQTPVYGLEWIGTIHPRRGGTAYNQRFKGKAALTADKSSSTAYMELSSLTSEDSAVYYCARYGYPWYFDVWGAGTTVTVSS
VL: LSLPVSLGDQASISCRSSQSIVHDNGNTYLEWYLQKPGQSPKLLIYKVSNRFSGVLDKFSGSGSGTDFTLKISRVEAEDLGIYYCFQGSHVPPTFGGGTKLEIK
modifications: heavy chain mAb HB14; light chain mAb HB14

What was measured:
[1] = target: T1, EBV gp350 stably expressed on CHO cells (Epstein-Barr virus, UniProt P03200); test: Epitope mapping by competitive cell binding assay with biotinylated mAbs
T1 construct: stably co-transfected with full-length pCAGGS-gp350/220 and pCI-puro vector; expressed in transfected cells; host or cells: CHO cells
Procedure: To evaluate conformation epitope mapping of the selected mAbs, competitive binding assays were conducted using biotinylated mAbs. A one-step antibody biotinylation kit (MACS Miltenyi Biotec) was used to biotinylate the mAbs. Approximately 1×10^5 CHO cells that stably expressed EBV gp350 were incubated for 2 hours with serially diluted ([…]) unlabeled competitor mAbs and non-specific anti-KSHV gH/gL 54A1 mAb. After being washed with PBS, the cells were incubated for 2 hours in the presence of 1 μg/ml biotinylated mAbs. To determine maximum binding, cells in which the biotinylated mAb was added in the absence of unlabeled mAbs were included in the assay. Cells were washed with PBS, followed by incubation for 1 hour with anti-biotin AF488 at a dilution of 1:500. After the final wash in PBS, cells were resuspended in 1% paraformaldehyde and analyzed by flow cytometry as described above. Percentage of inhibition was calculated as: 100−[(% fluorescent cells with competitor mAb/% fluorescent cells without competitor mAb)×100]. The complete prevention of binding of a biotinylated mAb by its unlabeled counterpart was used as a validation of the assay, as previously described (84).
At least seven unique CD21 binding epitopes on EBV gp350 have been predicted (Table 3).

[2] = target: T2, purified EBV gp350/220 (recombinant EBV gp350 ectodomain) (Epstein-Barr virus, UniProt P03200); test: Indirect ELISA on recombinant EBV gp350 ectodomain; type: binding; details: for ELISA binding to purified EBV gp350/220: purified antibodies 10 μg/ml; for ELISA binding strength to gp350, compared with m72A1 / parental antibody: soluble gp350 0.5 μg/ml
T2 construct: purified EBV gp350 ectodomain protein (AA 4-863); purchased Immune Technology Corporation
Procedure: Briefly, immunoplates (Costar 3590; Corning Incorporated) were coated with 50 μl of 0.5 μg/ml recombinant EBV gp350 ectodomain (Immune Technology Corporation) diluted in 1× phosphate buffered saline (PBS, pH 7.4) and incubated overnight at 4° C. After washing three times with 1×PBS containing 0.05% (v/v) Tween 20 (washing buffer), plates were blocked with 100 μl washing buffer containing 2% (w/v) bovine serum albumin (BSA) (blocking buffer) then incubated for 1 h at room temperature and washed as above. 100 μl of hybridoma supernatant or 50 μl of 10 μg/ml purified mAbs was added to each well (in triplicate) and incubated for 2 h at room temperature. […] The plates were washed as described above, followed by incubation with 50 μl of goat anti-mouse IgG HRP-conjugated secondary antibody (1:2,000 diluted in 1×PBS) at room temperature for 1 h. The plates were washed again and 100 μl of chromogenic substrate 2,2′-azino-bis (3-ethylbenzothiazoline-6-sulphonic acid) (ABTS, Life Science Technologies) was added. The reaction was stopped using 100 μl of ABTS peroxidase stop solution containing 5% sodium dodecyl sulfate (SDS) in water. The absorbance was read at an optical density of 405 nm using an ELISA reader (Molecular Devices). All experiments were performed in triplicate and confirmed in three independent experiments.
ELISA binding of anti-gp350 and anti-gH/gL to soluble gp350 and gH/gL proteins was performed. Soluble EBV gp350 and gH/gL proteins were used as the target antigen at 0.5 μg/ml. 1× phosphate buffered saline (PBS) was used as negative (not shown) control. Bound antibodies were detected using HRP-conjugated anti-mouse or anti-human IgG (1:2,000).

[3] = test system: EBV-eGFP infection of Raji cells; test: EBV neutralization assay in Raji cells; type: cell-based, Epstein-Barr virus; details: for neutralization of EBV in Raji cells (in words): spin-column purified mAbs, 12.5, 25, 50 and 100 μg/ml
Procedure: EBV neutralization assay was performed in Raji cells as previously described (47). Briefly, purified individual anti-gp350 mAbs were incubated with purified AGS-EBV-eGFP (titer calculated to infect at least 8% of HEK293 cells seeded in 100 μl of serum-free DMEM) for 2 hours at 37° C. To represent EBV infection of B cells, the pre-incubated anti-gp350 mAbs/AGS-EBV-eGFP were used to infect 5×10^5 Raji cells seeded in a 96-well plate for 2 hours at 37° C. Neutralizing 72A1 and non-neutralizing 2L10 anti-gp350 mAbs served as positive and negative controls, respectively. Infected cells were washed three times with PBS to remove any unbound viruses and antibodies. Washed, infected cells were incubated in 96-well plates at 37° C. for 48 hours post-infection and the number of eGFP+ (infected) cells was determined using flow cytometry. All dilutions were performed in quintuplicate and the assays were repeated three times. Antibody EBV neutralization activity was calculated as: % neutralization=(EBValone−EBVmAb)/(EBValone)×100.
However, this antibody was recently reported to be a mixture of both functional and non-functional antibodies (50). […] The percentage of eGFP+ cells (percent infection) was determined using flow cytometry as described (47). The nAbs 72A1 and E1D1 were used as positive controls, whereas the anti-gp350 non-neutralizing mAb 2L10 and KSHV gH/gL mAb 54A1 were used as negative controls. Because HB4, HB13, HB15, HB16, HB19, HB21, and HB23 were confirmed to be polyclonal based on isotyping and/or sequence data, they were eliminated from further consideration in the neutralization assay. HB18 was not used in neutralization experiments because it was identical to HB8.
The purified eGFP-tagged-EBV was titered in Raji cells to determine percent EBV infection using a range of volumes (50-250 μl) (FIG. 5A). Then initial neutralization of EBV was conducted in Raji cells using purified mAbs at various concentrations (12.5, 25, 50, and 100 μg/ml).
EBV-eGFP+ cells were enumerated using flow cytometry.

T2 sequence (P03200 4-863): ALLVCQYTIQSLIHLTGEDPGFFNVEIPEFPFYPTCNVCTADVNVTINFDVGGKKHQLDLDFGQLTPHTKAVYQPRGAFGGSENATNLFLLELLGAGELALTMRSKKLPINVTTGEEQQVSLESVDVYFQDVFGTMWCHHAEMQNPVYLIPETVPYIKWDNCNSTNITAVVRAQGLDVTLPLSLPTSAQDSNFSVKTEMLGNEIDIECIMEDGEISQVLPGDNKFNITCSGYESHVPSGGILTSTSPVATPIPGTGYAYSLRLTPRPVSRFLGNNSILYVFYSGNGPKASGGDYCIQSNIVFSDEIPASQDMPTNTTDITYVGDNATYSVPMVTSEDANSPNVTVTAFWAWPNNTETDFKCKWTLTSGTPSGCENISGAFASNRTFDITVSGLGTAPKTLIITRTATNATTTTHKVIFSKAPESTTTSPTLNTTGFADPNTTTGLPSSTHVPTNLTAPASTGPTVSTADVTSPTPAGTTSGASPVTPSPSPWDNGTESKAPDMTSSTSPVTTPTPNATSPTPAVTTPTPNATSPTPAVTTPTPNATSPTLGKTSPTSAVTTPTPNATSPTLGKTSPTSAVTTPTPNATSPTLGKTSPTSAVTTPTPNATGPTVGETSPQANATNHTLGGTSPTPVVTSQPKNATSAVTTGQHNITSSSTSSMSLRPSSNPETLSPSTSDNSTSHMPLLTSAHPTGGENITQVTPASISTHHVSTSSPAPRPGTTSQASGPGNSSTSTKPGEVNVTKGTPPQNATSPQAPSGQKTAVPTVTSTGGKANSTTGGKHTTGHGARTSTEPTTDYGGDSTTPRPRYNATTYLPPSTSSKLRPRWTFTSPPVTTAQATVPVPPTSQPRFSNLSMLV
T1 sequence (P03200 whole entry): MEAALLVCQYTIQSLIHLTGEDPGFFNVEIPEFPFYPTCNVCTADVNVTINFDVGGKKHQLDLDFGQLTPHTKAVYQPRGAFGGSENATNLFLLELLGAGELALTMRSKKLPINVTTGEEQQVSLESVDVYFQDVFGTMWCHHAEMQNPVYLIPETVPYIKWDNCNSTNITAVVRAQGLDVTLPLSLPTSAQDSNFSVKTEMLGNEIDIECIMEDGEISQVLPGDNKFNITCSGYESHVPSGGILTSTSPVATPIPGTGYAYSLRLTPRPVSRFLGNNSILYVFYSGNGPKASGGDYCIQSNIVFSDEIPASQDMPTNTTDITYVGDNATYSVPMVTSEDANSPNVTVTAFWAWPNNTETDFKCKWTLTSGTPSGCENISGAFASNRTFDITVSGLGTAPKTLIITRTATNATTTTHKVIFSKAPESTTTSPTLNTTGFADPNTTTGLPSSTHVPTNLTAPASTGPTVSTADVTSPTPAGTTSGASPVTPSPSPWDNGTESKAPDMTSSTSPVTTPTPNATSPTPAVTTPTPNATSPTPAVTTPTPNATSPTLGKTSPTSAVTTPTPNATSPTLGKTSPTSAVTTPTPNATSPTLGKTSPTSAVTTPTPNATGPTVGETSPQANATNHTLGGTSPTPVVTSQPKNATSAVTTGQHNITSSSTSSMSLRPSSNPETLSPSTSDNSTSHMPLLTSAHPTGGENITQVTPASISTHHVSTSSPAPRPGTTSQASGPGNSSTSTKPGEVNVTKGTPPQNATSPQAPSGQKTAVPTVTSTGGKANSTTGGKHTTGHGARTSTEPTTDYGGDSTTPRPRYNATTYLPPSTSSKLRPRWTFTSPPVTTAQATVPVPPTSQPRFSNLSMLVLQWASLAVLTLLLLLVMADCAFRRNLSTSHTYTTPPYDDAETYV

Molecule	ELISA binding to purified EBV gp350/220 [2]	neutralization of EBV in Raji cells (in words) [3]	ELISA binding strength to gp350, compared with m72A1 / parental antibody [2]	also measured
B1	+	dose-dependent neutralization		competitive binding versus m72A1 and h72A1 (in words) ([1]; biotinylated antibodies): bound targets that overlapped with those of both m72A1 and h72A1; antigen binding competition with biotinylated m72A1 (in words) ([1]; biotinylated m72A1 1 μg/ml, unlabeled mAbs 500-67.5 μg/ml): Antigen binding competition was observed; blocking of EBV infection of Raji cells (in words) ([3]; protein G and size-exclusion chromatography-purified mAbs, 12.5-100 μg/ml): blocked EBV infection in a dose-dependent manner
B2	+	failed to neutralize EBV infection		
B3	+	failed to neutralize EBV infection		% inhibition of biotinylated nAbs (biotinylated m72A1) ([1]; unlabeled mAb 67.5 μg/ml, biotinylated m72A1 1 μg/ml): 13%; % inhibition of biotinylated nAbs (biotinylated m72A1) ([1]; unlabeled mAb 125 μg/ml, biotinylated m72A1 1 μg/ml): 16%; % inhibition of biotinylated nAbs (biotinylated m72A1) ([1]; unlabeled mAb 250 μg/ml, biotinylated m72A1 1 μg/ml): 14%; % inhibition of biotinylated nAbs (biotinylated m72A1) ([1]; unlabeled mAb 500 μg/ml, biotinylated m72A1 1 μg/ml): 12%; blocking of EBV infection of Raji cells (nAb activity) ([3]; protein G and size-exclusion chromatography-purified mAbs, highest concentration 100 μg/ml): < 50%
B4	+	failed to neutralize EBV infection	equal to or greater than that of the positive control, m72A1	
B5	+	failed to neutralize EBV infection		
B6	+	failed to neutralize EBV infection	equal to or greater than that of the positive control, m72A1	
